From US20230167174A1 come the findings set out here.

For orientation: EC50 means the midpoint of the concentration-response curve.

Experiment [1] has as its target T1, hTREM2 ECD (19-174)-hFc (human) (UniProt Q9NZC2).
T1 sequence (chain, biotinylated where printed -bio): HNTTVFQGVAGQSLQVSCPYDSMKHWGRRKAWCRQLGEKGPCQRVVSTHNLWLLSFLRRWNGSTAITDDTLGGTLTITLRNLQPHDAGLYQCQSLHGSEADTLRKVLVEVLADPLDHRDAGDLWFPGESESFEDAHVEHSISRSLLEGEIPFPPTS
The experiment can be described thus: SPR, label free kinetics.

The target in experiment [2] is cyTREM2 ECD (19-174)-APP-Avi (cynomolgus). The experiment can be described thus: SPR, label free kinetics. Background: Surface plasmon resonance follows binding to a sensor surface in real time, without labels.
Experiment [3] has as its target T2, hTREM2 IgSF-hTREM1 stalk-hFc (human) (UniProt Q9NZC2).
T2 sequence (looked up): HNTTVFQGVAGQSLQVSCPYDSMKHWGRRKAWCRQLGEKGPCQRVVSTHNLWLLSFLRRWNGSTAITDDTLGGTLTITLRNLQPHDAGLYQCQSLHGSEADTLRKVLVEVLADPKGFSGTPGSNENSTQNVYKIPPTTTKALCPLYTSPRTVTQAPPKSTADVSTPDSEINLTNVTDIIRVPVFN
The experiment can be described thus: recombinant protein binding.

The target of experiment [4] is T1, hTREM2 ECD (19-174)-hFc (human). The experiment can be described thus: recombinant protein binding.
The target in experiment [5] is cyTREM2 ECD (19-174)-hFc (cynomolgus). The experiment can be described thus: recombinant protein binding.
Experiment [6] concerns the target T3, human TREM2 endogenously expressed (hM2A macrophages, THP1-B5 cells, iPS derived microglia) (human) (UniProt Q9NZC2).
T3 sequence (looked up): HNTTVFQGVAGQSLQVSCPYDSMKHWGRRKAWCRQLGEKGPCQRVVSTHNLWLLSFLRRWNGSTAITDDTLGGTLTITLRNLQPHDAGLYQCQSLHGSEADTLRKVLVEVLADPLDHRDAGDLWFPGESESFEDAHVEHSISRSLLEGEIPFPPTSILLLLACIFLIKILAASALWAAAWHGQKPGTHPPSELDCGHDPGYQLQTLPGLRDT
The experiment can be described thus: FACS, hM2A, donor 4.

In experiment [7] the target is T1, hTREM2 ECD (19-174)-hFc (human). Kind of experiment: SET.
The target of experiment [8] is cyTREM2 ECD (19-174)-APP-Avi (cynomolgus). Kind of experiment: SET.
The target of experiment [9] is T4, human TREM2 on CHO-hDAP12-hTREM2 cells (human) (UniProt Q9NZC2).
T4 sequence: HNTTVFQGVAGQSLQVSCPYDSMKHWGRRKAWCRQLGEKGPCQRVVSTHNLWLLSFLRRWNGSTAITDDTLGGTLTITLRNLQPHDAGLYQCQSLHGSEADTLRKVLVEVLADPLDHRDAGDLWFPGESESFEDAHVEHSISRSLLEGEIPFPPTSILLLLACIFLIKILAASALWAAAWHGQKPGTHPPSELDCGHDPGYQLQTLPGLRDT
The experiment can be described thus: FACS, CHO-hTREM2. For orientation: A flow cytometer gives signals particle by particle.

In experiment [10] the target is T3, human TREM2 endogenously expressed (hM2A macrophages, THP1-B5 cells, iPS derived microglia) (human). Kind of experiment: cell-based or functional assay.
The target in experiment [11] is T4, human TREM2 on CHO-hDAP12-hTREM2 cells (human). Kind of experiment: cell-based or functional assay.
Experiment [12] concerns the target T1, hTREM2 ECD (19-174)-hFc (human). The experiment can be described thus: SET screening.
The target of experiment [13] is T3, human TREM2 endogenously expressed (hM2A macrophages, THP1-B5 cells, iPS derived microglia) (human). Kind of experiment: FACS, hM2A, donor 1.
The target is the same in experiment [14]. The experiment can be described thus: FACS, hM2A, donor 2.
The target of experiment [15] is cynomolgus TREM2 on CHO-hDAP12-cyTREM2 cells (cynomolgus). Kind of experiment: FACS, CHO-cyTREM2.
The target in experiment [16] is T3, human TREM2 endogenously expressed (hM2A macrophages, THP1-B5 cells, iPS derived microglia) (human). Kind of experiment: FACS, hM2A.
Experiment [17] shares this target. The experiment can be described thus: FACS, hM2A, median of 4 donors.
The target is the same in experiment [18]. The experiment can be described thus: FACS, hM2A, donor 3.

cynomolgus TREM2 on CHO-hDAP12-cyTREM2 cells (cynomolgus), sequence (chain, as listed by the source): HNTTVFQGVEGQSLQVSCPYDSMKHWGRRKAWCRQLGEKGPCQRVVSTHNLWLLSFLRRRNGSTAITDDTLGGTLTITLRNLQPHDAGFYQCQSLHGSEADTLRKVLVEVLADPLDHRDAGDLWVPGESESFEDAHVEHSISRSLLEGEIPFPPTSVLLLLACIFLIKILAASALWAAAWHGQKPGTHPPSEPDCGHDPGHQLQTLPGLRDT

B1: MOR044746 (antibody, from a related filing, V domains shown)
VH: QVQLQQSGPGLVKPSQTLSLTCAISGDSVSSSSAAWNWIRQSPSRGLEWLGHIGYRSKWYNEYAVSVKSRITINPDTSKNQFSLQLNSVTPEDTAVYYCARGMYGSVPYKEGYYFDIWGQGTLVTVSS
VL: DIQMTQSPSSLSASVGDRVTITCRASQGISSDLNWYQQKPGKAPKLLIYAASNLQSGVPSRFSGSGSGTDFTLTISSLQPEDFATYYCQQYTDESMTFGQGTKVEIK
As to B1, the Kd in [1] is 0.003 nM; in experiment [2], 0.004 nM; in [7] it was 0.003 nM; in [8], 0.004 nM; in experiment [12], less than 0.6 nM. For the same molecule, the S/BG in experiment [3] is greater than 20; in experiment [4], greater than 5; in [5], greater than 5. In addition, the EC50 is 0.64 nM in experiment [6]; 0.16 nM in experiment [9]; 0.73 nM in experiment [13]; 0.54 nM in experiment [14]; 0.65 nM in experiment [15]; less than 2 nM in experiment [16]. Moreover, the figures for the EC50 in [17] and in [18] were 0.59 nM and 0.54 nM, respectively. The molecule further displayed a Fold TREM2 cell surface increase compared to isotype (hM2A, 100 nM) in experiment [10] of 5.1 fold. The TREM2 activation (fold in RGA) in [10] was 1.3 fold. Further, the lowest active concentration, phagocytosis in hM2A in experiment [10] turned out to be 1 nM. Also, the Internalization compared to parental after 6 h in [11] is 0.7 fold. Further, the Internalization; fold over background after 6 h in [11] was found to be 33.3 fold.
